Data: US7657380

Legend:
[1] = biological target: T1, EGFR extracellular domain (R&D Systems) (UniProt P00533 25-645, limits assumed); assay: SPR, Fab over EGFR ECD on CM5 chip
[2] = biological target: T1, EGFR extracellular domain (R&D Systems); assay: SPR, Fab over EGFR on CM5 chip

Kd [1] [nM]	koff [1] [s⁻¹]	kon [1] [M⁻¹ s⁻¹]	Kd [2] [nM]	koff [2] [s⁻¹]	kon [2] [M⁻¹ s⁻¹]	Binder
192	0.00535	27900	–	–	–	C225 L2/H3 Fab (Fab, V domains shown) VH: QVQLQQSGPGLVKPSQTLSLTCTVSGFSLTNYGVHWVRQAPGKGLEWLGVIWSGGNTDYNTSLKSRLTISKDNSKSQVVLQMNSLRAEDTAVYYCARALTYYDYEFAYWGQGTLVTVSS VL: DILLTQSPATLSLSPGERVTLSCRASQSIGTNIHWYQQKPDQSPKLLIKYASESISGIPSRFSGSGSGTDFTLTISSLQPEDFADYYCQQNNNWPTTFGAGTKLEIK
264	0.00473	17900	–	–	–	C225 L2/H4 Fab (Fab, V domains shown) VH: QVQLQQSGPGLVKPSQTLSLTCTVSGFSLTNYGVHWVRQAPGKGLEWLGVIWSGGNTDYNTSLKSRLTISKDNSKSQVVLTMTNMDPVDTATYYCARALTYYDYEFAYWGQGTLVTVSS VL: DILLTQSPATLSLSPGERVTLSCRASQSIGTNIHWYQQKPDQSPKLLIKYASESISGIPSRFSGSGSGTDFTLTISSLQPEDFADYYCQQNNNWPTTFGAGTKLEIK
–	–	–	0.257	2.53e-05	98600	ICR62 WT Fab (Fab, V domains shown) VH: QVNLLQSGAALVKPGASVKLSCKGSGFTFTDYKIHWVKQSHGKSLEWIGYFNPNSGYSTYNEKFKSKATLTADKSTDTAYMELTSLTSEDSATYYCTRLSPGGYYVMDAWGQGASVTVSS VL: DIQMTQSPSFLSASVGDRVTINCKASQNINNYLNWYQQKLGEAPKRLIYNTNNLQTGIPSRFSGSGSGTDYTLTISSLQPEDFATYFCLQHNSFPTFGAGTKLELK
–	–	–	0.45	0.000106	235000	ICR62 L2/H9 Fab (Fab, V domains shown) VH: QVQLQQSGPGLVKPGASVKVSCKGSGFTFTDYKIHWVRQAPGKSLEWMGYFNPNSGYSTYNEKFQGRVTITADKSTDTAYMELSSLRSEDTAVYYCTRLSPGGYYVMDAWGQGTLVTVSS VL: DIQMTQSPSSLSASVGDRVTITCRASQNINNYLNWYQQKPGKAPKRLIYNTNNLQTGIPSRFSGSGSGTDYTLTISSLQPEDFATYFCLQHNSFPTFGAGTKLEIK
